# Assay results from article PMC4690471 (Cell, 2015).
# B1: full-length zebrafish RAG2 (natural protein, UniProt O13034 1-530, looked up)
# chain: MSLQPLTAVNCGSLVQPGFSLLDLEGDVYLFGQKGWPKRSCPTGIFGVRIKKGELKLRAISFSNNSSYLPPLRCPAIAHFEAQDGKPECYLIHGGRTPNNELSSSLYMLSVDSRGCNRKVTLRCEEKELVGDVPSARYGHTLSVINSRGKTACVLFGGRSYMPPTERTTQNWNSVGDCPPQVYLIDLEFGCCTAHTLPELTDGQSFHVALARQDCVYFLGGHILSSDCRPSRLIRLHVELLLGSPVLTCTILHEGLTITSAIASPIGYHEYIIFGGYQSETQKRMECTYVGLDDVGVHMESREPPQWTSEISHSRTWFGGSLGKGTALVAIPSEGNPTPPEAYHFYQVSFQKEQDGEATAQGCSQESTDFEDSAPLEDSEELYFGREPHELEYSSDVEGDTYNEEDEEDESQTGYWIKCCLSCQVDPNIWEPYYSTELTRPAMIFCSRGEGGHWVHAQCMELPESLLLQLSQDNSKYFCLDHGGLPKQEMTPPKQMLPVKRVPMKMTHRKAPVSLKMTPAKKTFLRRLFD
# B2: zebrafish RAG1 (271–1031) (domain or fragment, UniProt O13033 271-1031, looked up)
# chain: RCQRDHLSTKLIPTEVPADLIRAVTCQVCDHLLSDPVQSPCRHLFCRLCIIRYTHALGPNCPTCNQHLNPSHLIKPAKFFLATLSSLPLLCPSEECSDWVRLDSFREHCLNHYREKESQEEQTPSEQNLDGYLPVNKGGRPRQHLLSLTRRAQKHRLRDLKNQVKTFAEKEEGGDVKSVCLTLFLLALRAGNEHKQADELEAMMQGRGFGLHPAVCLAIRVNTFLSCSQYHKMYRTVKATSGRQIFQPLHTLRNAEKELLPGFHQFEWQPALKNVSTSWDVGIIDGLSGWTVSVDDVPADTISRRFRYDVALVSALKDLEEDIMEGLRERALDDSMCTSGFTVVVKESCDGMGDVSEKHGSGPAVPEKAVRFSFTIMSISIRLEGEDDGITIFQEQKPNSELSCRPLCLMFVDESDHETLTAILGPVVAERKAMMESRLIISVGGLLRSFRFFFRGTGYDEKMVREMEGLEASGSTYICTLCDSTRAEASQNMVLHSITRSHDENLERYEIWRKNPFSESADELRDRVKGVSAKPFMETQPTLDALHCDIGNATEFYKIFQDEIGEVYQKPNPSREERRRWRSTLDKQLRKKMKLKPVMRMNGNYARRLMTREAVEAVCELVPSEERREALLKLMDLYLQMKPVWRSTCPSRDCPDQLCQYSYNSQQFADLLSSMFKYRYDGKITNYLHKTLAHVPEIVERDGSIGAWASEGNESGNKLFRRFRKMNARQSKTFELEDILKHHWLYTSKYLQKFMEAHKNS
# What was measured:
# [1] = molecular target: B2; assay: cryo-EM structure
# [2] = molecular target: the molecule itself; assay: cryo-EM structure
Binder,binding result [1],stoichiometry N [2]
B1,binds,
B2,,2
